Experiments:
MB = target: T1, MB (UniProt P02144 2-154); assay: fluorescent strand-displacement aptasensor (RNase H recycling, GO quenching); 50 ng/mL; negligible signal; 20 mM Tris-HCl, 40 mM KCl, 8 mM MgCl2, 1 mM DTT, pH 7.8; 20 min Ap/P1 + CRP incubation; temperature not stated; conditions: label: none (5-FAM is on the reporter RNA S3, not on Ap or P1); partial duplex: P1 (23 nt) pairs with Ap nt 48-70; 47 nt 5' and 2 nt 3' single-stranded Ap overhangs
T1 sequence: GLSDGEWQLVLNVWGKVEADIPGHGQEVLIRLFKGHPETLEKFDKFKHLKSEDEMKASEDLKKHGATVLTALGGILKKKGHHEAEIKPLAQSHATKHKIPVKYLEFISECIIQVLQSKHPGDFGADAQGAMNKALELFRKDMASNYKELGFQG

BNP = BNP (UniProt P16860 103-134); assay: as above; conditions: label: none (5-FAM is on the reporter RNA S3, not on Ap or P1); partial duplex: P1 (23 nt) pairs with Ap nt 48-70; 47 nt 5' and 2 nt 3' single-stranded Ap overhangs
Sequence of BNP (P16860 103-134): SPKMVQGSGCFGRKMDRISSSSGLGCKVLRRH

C-reactive protein (CRP) = target: T2, C-reactive protein (CRP) (UniProt P02741 19-224); assay: fluorescent strand-displacement aptasensor (RNase H recycling, GO quenching); CRP 10 ng/mL; P1 strand released from Ap/P1; 20 mM Tris-HCl, 40 mM KCl, 8 mM MgCl2, 1 mM DTT, pH 7.8; 20 min Ap/P1 + CRP incubation; temperature not stated; conditions: chain copies: 5; label: none (5-FAM is on the reporter RNA S3, not on Ap or P1); partial duplex: P1 (23 nt) pairs with Ap nt 48-70; 47 nt 5' and 2 nt 3' single-stranded Ap overhangs
T2 sequence: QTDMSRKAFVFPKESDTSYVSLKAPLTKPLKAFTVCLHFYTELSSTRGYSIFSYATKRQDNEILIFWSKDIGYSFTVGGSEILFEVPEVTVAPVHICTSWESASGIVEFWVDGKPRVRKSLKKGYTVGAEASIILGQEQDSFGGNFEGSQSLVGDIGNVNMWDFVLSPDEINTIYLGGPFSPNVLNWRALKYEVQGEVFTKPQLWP

B1: CRP aptamer (Ap) presented as Ap/P1 complex (mixed)
DNA 1: GGCAGGAAGACAAACATATAATTGAGATCGTTTGATGACTTTGTAAGAGTGTGGAATGGTCTGTGGTGCTGT
DNA 2: AGCACCACAGACCATTCCACACT
binding result (MB): no binding | binding result (BNP): no binding | binding result (C-reactive protein (CRP)): binds

Reference: PMC9063470, “Ultrasensitive fluorescent aptasensor for CRP detection based on the RNase H assisted DNA recycling signal amplification strategy”
